From a protein production outcome set (Wang et al. 2014)

Assay: label from the status in PepcDB records
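Further: failed if final PepcDB status was selected cloned or expressed and not failed if soluble or beyond.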

| Sequence | protein production |
| --- | --- |
| MTSDQPIRWGIIGPGTIARTFADGVAHSRTGKLVAIATRNPSKPGLAENFPGARIVNGYEALLSDPEVDAVYISVPHTGHAEWAIKAARAGKHILVEKPIALSAYDAEAVYYEAKKAGVFAGEAFMYRVHPQTEKLVELIKSGVIGTLRIIRSSFGFNMGSYRPEHRLFANDTAGGGILDVGGYPVSMARLIAGAAEGKAFLDPEKVSGVAHLGESGVDEWASAVLKFPNEIIAEVSCSIMAQQDNVLRIIGSEGRIEVADFWFASGHKGGVGKIEIFKGGKQETIEVKEERWLYSFEADAAGDAIRAGRTEFSAPGMGWTDSIANLRVLDQWRASVGLEYGVEKAAKRTNNIAGGAVTRGNSIRQRQIPGISKPASVVTLGFEFFPNFAAASLTLDAFYEAGGNAFDTAYVYGAGKTEAIFGDWHTSRNVPREEIVLIGKGAHSPLCYPDMIAKQLDQSLARLKTDYVDIYFMHRDNTDVPVGEFVDAMDAEVKRGRIRGIFGGSNWTRARFDEAIAYAEKNGKTAPAALSNNFSLAEMLDPIWAGCVAASDDDWKKWLNEKQIPNFAWSSQGRGFFTDRAGRDKRDDEEIVRVWYSERNFGRRDRAIELANKLGRNPIHIALAYVIAQPFPVIPLIGPRTVAELEDSLSALDIRLTPDEVKWLEG | failed |
| MQFQDVRLMRVVVCRRLGPAKGQRRWHPLDLGTTGCFENLGAQRPTYRMRAIRMLECAMPNRLVRSLQRWRPFGLPPHRWRLAPWYWRGLQVTLEPGSAIAWIVRLTGGFEETEIDIAAALYSALYPDRCILDVGANVGIHSLAWARLAPVVALEPAPGTHSRLEANVAANGLQDRIRTLRTAAGDAVGEVDFFVAADSAFSSLNDTGRIRIRERTRVPCTTLDALAAELPLPVGLLKIDVEGLERAVIAGAAELLRRDRPVLLVEIYGGAASNPDPERTIADIRAYGYEPFVYADDAGLQPYQRHRDDRYCYFFIPSRKG | failed |
| GRLRTDAVRAFCTTIVEATAPYACAFKPNFAFFEALGPAGLTVLDQVVTTIPDDCLVLGDAKRGDIGHSARHYAASIYEELGLDACTVSPYLGRDSVMPFLEHEGTCTFVLARTSNDGAADLQEACTCDGTPLYRHVARRVQAWNADAPGGAGLVVGATAPAALQDLRSLCPSLPFLVPGVGAQGGDAAAVMDAAATDEGPVLVNSSRSILYASEGPNYANAAADAARALRDALNG | failed |
| MYKNILILGRGIGQVMFQNNALSGGLMLLGIAFNSWQLAVLSVLGTVVSTLTASLSGYDKEDIRNGLYGFNGTLVGIAIGVFMEINVTSILLLISGSAFSTWVARCFRYQNRVSGLTAPFIFVVWLLLVGCHYLYPSLLLSSSLEKPELTMDIFRSFCLNIGQVMFQGNILSGLFFLLGILINSRMNALYTLTGAILPLFMILYPHTDLAAWNLGLLGYNGVLCAIALGDKTGIGVVKAIFSIILSIVLQLTGMHMGIVTLTAPFVFSVWITGGLFSVFRSKS | failed |
| MRLLACWTDVHHRHAPMTAHDLPRQAFLRGAVAILPLSLAVAPWGLLAGSMAIEANLTPAEGQGLSAIVFAGAAQLVAIGMLKGGAGFFSIIFTTLLLTSQHLLYGMSLRPVLSPLPGRWRIGLGFLLTDEFFALASQHDRRNFNRWYALGVGLTFYIAWNLFTLAGILLGRSIPGLEHLGLDFSIAATFIALVAPLVRNVPTLVCVATSLFCSVLFSHWQWSSALVLAGLAGMAAGFICNKLYREAPWSGQ | failed |
| MTQHYLRSAAYRDFSIHSIYGMSDDDIHAMFARLRWSSDSHQACPACGAWAQHYRRPARQQWRCKECGRDFSVTSATAFSSRKKSLRSILLATFYYVTGVKGLAGLGLSRMGDYSNKAAHVALGKLREAIFRTQDFTPLTGVVEIDGGYFGGKPRKPNRRGLRNDQAIVDRIAGRPAKRPWHASGMTRTNWEKRKNKRVVMIFRQQGRPGEGAVRSIAAVARSENDKDAAKLIARYVSSEAIIMTDESPAYATVSATHTHYAVRHSHEYVSAEGVNENQAESFFSRLRRWEYGVSHGVRPAYLADYANEMAWREDVRRFSIRTQVEMLLIKALTVGHSRWWRGYYQGKRRGTEILMNQGIPPSSASGASAQ | failed |
| MHLGSTFYDETELRSLPFRHLGANVKIKRTAGLFFVENISIMDDARIDDFTIIVASREHVEIGCNVHIASQCYISGSDGFVMEDFSGLAPGVKIYTSSDDYTGEKMTNPTLPRHLIGGPAGKVVLRKHVIIGSNSVVLPKVTIEEGSSVGSLSLVNKSLPAWGVYAGIPVRRLRDRSQNILILEKELGASRA | failed |
| MPSAEISSSTEAKQAATTVDVSYKTHVQTFGWQDWAANGASAGTTGLAKRLEAIQIKTSAPASQGGIRYRTHVQTYGWLDWVSDGASSGTTGEAKRLEAIQIELTGALATQYDVYYRVHAQTFGWLDWACNGASAGSAGYAKRLEAIQIVLVPKGGKAPGSTAAPYKELPPAVSYQSYLSGAWQNSVLDNAVSGTVGQAKQIEGIKISLQDKAVSFAGSSIQYRTYLQTYAWQDWTSNGGTSGKPGSGKRVEAVQIKLTGSIASSYDVYYRVHSQTFGWLDWACNGQSAGSAGYAKRIEAIQIVLVKKGGAAPGSTATPYKEAPPSVTYQTYISGGWQPTVADKATSGLAGQGKKTEGLRVSLKAGAQSLGNSSVKYRTYLQTYGWQSWVSNGASSAKAGSGKRMEAIEISLTGDISSQYDIYYRSYVTGYGWLGWACNGATSGTTDYAKPIEAVQAVLVKKGGAAPGSTSNAYLKPEVTGPFEISFSPSGASNFGGLVSIEPDHDVILVASAKGGAGGYQYRYRAELIGGSIQTLKDYSGSSSYTWRPNTPGRYKMYVDVKDSTGTVKTAMFQMSVGLSGIDVSEHQGTIDWKKVKAAGIDYAMIRAGFGWEEIDDQTDASLVQNVTGAKQAGLPFGLYHYSYADTVEEAKKEAEFLLDILEANNIAPSDLSYPIAFDIEEPDRLNVSQRRVNTDMVNAFCEIIRDAGYLPMVYASKTVIQDYLYYDEISANNIWMAAWTSTPNDTEIFDNCFPVDMWQYSESGTVDGINGRVDLNICYTTVFRDGSADTTQKGKVVVDAGSSLNVRKAPSVNADVVGSLYKDDIVTIISETSGWYQIVTSTGVSGYVSAEYIQKI | failed |
| AIARSEWPFDYASEADAMLHRITPENFEKLVRFAARLLRVGEIIALPTDTVYGLAAAARNSHGIELLYQTKQRDLRKPLAIAVPSVEDVSVYLHTEHLPPGLLEAILPGPLTLLLRQREDYVGIDLQDVRIDQYRGWERAKRLAPNLNLRRDGLLGVRVPDASFACAVSRELGDPLALTSANVSGRGDCGSVDEFRALWSACAAVFDGGAMPKPVMPSTVVDLSVPGTFRITRAGWMATDLVRILENKFGLTNKSANTSN | failed |
| MREVKLVTFDVWNTLLDLNIMLDEFSHQLAKISGLHIKDVANAVIEVRNEIKKMRAQASEDPRKVLTGSQEALAGKLKVDVELVKRATARAILNVDESLVLEGTKEALQFVKERGLKTAVIGNVMFWPGSYTRLLLERFGLMEFIDKTFFADEVLSYKPRKEMFEKVLNSFEVKPEESLHIGDTYAEDYQGARKVGMWAVWINQEGDKVRKLEERGFEIPSIANLKDVIELISKT | not failed |
| MSQVASLLIALPLISAFFVPVLKQIKKSLIFPYLTLITLLQTGIAGWVFYEVYTTGKPILIYAGGWRPPVGINLYIGPFAALFILIIAIVSFLTSLFSMRMVKVEPIDKYAMLFLLLMLGATGMIATGDIFNLFVFMEITAITAYALTAYNKTGEAAEASMKYMILGGIGSSFFLIGVALIYGVTGTLNMAQLAEFASAGKIMPVVAQVGLSLIIFGLAVEAELFPLNAWAPDAYQAAPHPITVMFSAFVVKAGLYAMARILYLLQKVNGWDSVLKLLLIMATLTVIFAELSALRQKDVKRMIAYSSIGQVGLIALAFSLGTQAGVDAGVFHMLNHAIVKTMMFLGVGYVGVMVGGTRIEDFRGLGKRMPLTALSLSVGAISTVGVPLFNVFWSKFRIIVATIQAGFVWPAVLVLFASVVEAVYYFRLLHVMWFAGEGERIKEGWIVVFLLLLALIIVGIGIYPTPVWEIVKRAGSDIFAVKVYINNVPLLGVVQ | failed |
| MVSIDTLIFQALNSSKFHPLYSPSINSINLQDDWAEKEGKEELSSILLLHRKASPPPPISALPNRNHKLQPLNLLFIDFPGQSFQQRERFRQFTASVRVYYVNDRKLNVQEGALIFFVRGVRYSLPLRELCDIYGFDNDLIGVALPGQFKDAQIFWSRFSNGIYDSKDAVHSEIRHLVLRYLVRLISSTLFCKMEPGKMRLSELLVLYHVVHDFFPDSLRFEEVDRDVNVGAVFAHHLVSLKTKPFTGRGKKLERVGSLLTPIFEHFRISFEGEELPCTALTKITSEHEELSFCPDPSLMHAAPRTRRHRGLASRSAPTQTEDEFIDPAEGLRVGSSSSALPYQLPSPPPIPMEPHVFQQYVVDSFKSVWNAIATLSR | failed |
| MASLRLPAQLVTRGNLIHHNSSSSSSGRLSWRRSLTPENTIPLFPSSSSSSLNRERSIVVPVTCSAAAVNLAPGTPVRPTSILVVGATGTLGRQIVRRALDEGYDVRCLVRPRPAPADFLRDWGATVVNADLSKPETIPATLVGIHTVIDCATGRPEEPIKTVDWEGKVALIQCAKAMGIQKYVFYSIHNCDKHPEVPLMEIKYCTEKFLQESGLNHITIRLCGFMQGLIGQYAVPILEEKSVWGTDAPTRVAYMDTQDIARLTLIALRNEKINGKLLTFAGPRAWTTQEVITLCERLAGQDANVTTVPVSVLRVTRQLTRFFQWTNDVADRLAFSEVLSSDTVFSAPMTETNSLLGVDQKDMVTLEKYLQDYFSNILKKLKDLKAQSKQSDIYF | failed |
| MKYLLIFLLVLAIFVISVTLGAQNDQQVTFNYLLAQGEYRISTLLAVLFAAGFAIGWLICGLFWLRVRVSLARAERKIKRLENQLSPATDVAVVPHSSAAKE | failed |
| MSMATPSSAQRFNDRVAAYVRYRPSYPPQLLRWLHGELGVTPATAVADIGAGTGISSRLFLEAGYAVTAVEPNQAMREAALQWLAEFPKFQAIDGTAEATGLADASVGLVSAAQAFHWFDMQAVRDEWARILQPGGLAVVYWNSRELDSTAFLRGYEQLLLDYGTDYSAVAERYQDDATMQAWFGEGFRAMARFPNVQRLDFESLRGRLLSSSYAPLAHDPRHAPMLAALRTLFDAYAHDGLIDFQYQTRVFAGRLN | failed |
| MSYAKEMLDAIEAGQMETAKQLFTQVLAHDDDETQYNLAEELYALGFNGQAKRLYQGLLGRYPDQGDLATALADIAVSDGDTDAALNYLSRIQPGDPAYVQSLVSAADVYQTLGLYEVSEQKLLEAKRLAPDEPVVTFALGEFYFDWGHFAEAISAYNELLAAGTTELAGVNIEARLAASLAQTGQYEDAVAAYEDVGVDALDLNGRFELGGLYLQLDDPAKAITNLQAVIDSDPSYANAYLPLARAYEAQNQPDKALDTVQAGVMVDDTNPTLYALGGKLALSEDNVKLAETYLQKALAIDPEDQGNMLAWSNFLVQEERDQENVDFLDQIDRSGDVDPQIYWNMAKSYDRLENIKKARENYLLAFNRFQDSPDFLHDIIDFFQSTGARAELKAALVRYLKLVPTDDEMQARLDELNAETDLEHHHHHH | not failed |
| MGETAGREHGTVTRSAEYIGSFPVDDSCLDDQIQQLHTQLKSLKNCKSKRTVSLRFSVKGVKVYDEDETTLLMAHAMCRVSLSTARPSDAQFAFASHNPGNSDAQLYCHLFRARHARAAQFLNLLLCRCFQLYFLEKHPEEAQEECSGKKPSRAPSLLNQGFPLSVSALVSFRRAPTQGLLPGAKLFSQQSTEQVSSPEEGPTSSPTIVRKMAIRTKELRSGAYRSFTFTPLKQRHLQDKLSAPQGGMSVHRTLSRLKEFLRKGTSHCKGMHVSSSQFGRNRRSTGSSCVVLGWRV | failed |
